Experimental data as given in publication PMC10987609, “ATR limits Rad18-mediated PCNA monoubiquitination to preserve replication fork and telomerase-independent telomere stability” (The EMBO Journal, 2024).

Biological target: T1, ubiquitinated SFB-tagged PCNA purified from HEK293T cells (human | , UniProt P12004 1-261; P0CG48 1-76, ubiquitinated with His-tagged ubiquitin; the paper places Rad18-mediated monoubiquitination at lysine 164)
T1 construct: PCNA, human, full-length cDNA; wild-type ubiquitin (Ub), conjugated to PCNA; the transfected plasmid is probably the N-terminal one; also called ubiquitinated SFB-PCNA; monoubiquitinated PCNA; source: HEK293T stably expressing His-tagged Ub, transfected with SFB-PCNA, treated with HU and ATRi; purified (cobalt resin under denaturing conditions, then streptavidin beads, biotin elution)
Assay: pull-down; GST-UBZ4 on glutathione-Sepharose resin incubated with ubiquitinated SFB-tagged PCNA purified from HEK293T cells; NETN buffer, 4 °C, 1 h
Conditions: both partners purified

binding result: binds
B1: GST-SLX4-UBZ4-WT (domain or fragment, human, UniProt Q8IY92 292-361, looked up)
chain: GLFFCQICQKNLSAMNVTRREQHVNRCLDEAEKTLRPSVPQIPECPICGKPFLTLKSRTSHLKQCAVKME
notes: SLX4, human, fragment with the tandem UBZ4 domains, amino acids 292–361; also called GST-UBZ4; source: E. coli, purified (glutathione-Sepharose, used on beads)
